Measurements reported in publication doi:10.1101/2022.07.13.499703.

How the values were obtained:
Assay in all cases: crystal structure
[1] = biological target: BKPyV VP1 E73Q variant pentamer (BK polyomavirus) (UniProt P03088)
[2] = biological target: BKPyV VP1 K69N-E82Q double mutant (N-Q) pentamer (BK polyomavirus) (UniProt P03088)
[3] = biological target: BKPyV VP1 A72V-E73Q-E82Q triple mutant (VQQ) pentamer (BK polyomavirus) (UniProt P03088)
[4] = biological target: BKPyV VP1 E73A variant pentamer (BK polyomavirus) (UniProt P03088)

BKPyV VP1 E73Q variant pentamer (from UniProt P03088 30-300) (domain or fragment)
stoichiometry N [1]: 5

BKPyV VP1 K69N-E82Q double mutant (N-Q) pentamer (from UniProt P03088 30-300) (domain or fragment)
stoichiometry N [2]: 5

BKPyV VP1 A72V-E73Q-E82Q triple mutant (VQQ) pentamer (from UniProt P03088 30-300) (domain or fragment)
stoichiometry N [3]: 5

BKPyV VP1 E73A variant pentamer (from UniProt P03088 30-300) (domain or fragment)
stoichiometry N [4]: 5
